From publication PMC9478129

How the values were obtained:
[1] = test system: Aa-Cascade Avi-Cas6f, mSav-ATTO647N labelled (Aggregatibacter actinomycetemcomitans); assay: single-molecule DNA curtains; conditions: EMSA: 1x TAE, 200 mM NaCl, 10% glycerol, 0.1 mg/mL BSA, 20 nM DNA, 37 C (22 C for AcrIF9 mutants), 1% agarose, footprint: same buffer, 2 mM KMnO4, AFM: …
[2] = test system: Aa-Cascade Avi-Cas6f, mSav-ATTO647N labelled;Aa1-AcrIF9 (Aggregatibacter actinomycetemcomitans;Aggregatibacter actinomycetemcomitans?); assay: single-molecule DNA curtains; conditions: with AcrIF9, mean off-target dwell time 18.6 s, EMSA: 1x TAE, 200 mM NaCl, 10% glycerol, 0.1 mg/mL BSA, 20 nM DNA, 37 C (22 C for AcrIF9 mutants), 1% agarose, footprint: same buffer, 2 mM KMnO4, AFM: …

**Q.** What does the source list for bacteriophage lambda DNA with target?
**A.** binding signal (% on-target events) [1]: 18; binding signal (% on-target events) [2]: 8
